From US20130347134A1 (published 2013)
Where a chain is given by its changes, count along the chain named. Numbers in names are those of the source.

Assays:
[1] = biological target: T1, human platelet glycoprotein Ib alpha (GPIb α) on human platelets (human, UniProt P07359 17-652); assay: human platelet attachment in flow to human VWF-A1 as a function of wall shear rate
T1 construct: whole, on cells; Native receptor on washed platelets or whole blood; also called GPIb alpha; hGPIb-α

[2] = biological target: T1, human platelet glycoprotein Ib alpha …; assay: parallel-plate flow chamber: human whole blood perfused over the surface-immobilized recombinant A1 protein, shear rate 1600 s^-1, accumulated platelets counted
[3] = biological target: T2, murine platelet glycoprotein Ib alpha (GPIb α) on mouse platelets (mouse, UniProt O35930 17-734); assay: transient tethers of VWF-A1-coated beads on surface-immobilized murine platelets; shear stress 0.5 dyn cm-2; R2 0.96
T2 construct: whole, on cells; Native receptor on mouse platelets or whole blood; also called murine GPIb α; mGPIb-α
T2 sequence (looked up): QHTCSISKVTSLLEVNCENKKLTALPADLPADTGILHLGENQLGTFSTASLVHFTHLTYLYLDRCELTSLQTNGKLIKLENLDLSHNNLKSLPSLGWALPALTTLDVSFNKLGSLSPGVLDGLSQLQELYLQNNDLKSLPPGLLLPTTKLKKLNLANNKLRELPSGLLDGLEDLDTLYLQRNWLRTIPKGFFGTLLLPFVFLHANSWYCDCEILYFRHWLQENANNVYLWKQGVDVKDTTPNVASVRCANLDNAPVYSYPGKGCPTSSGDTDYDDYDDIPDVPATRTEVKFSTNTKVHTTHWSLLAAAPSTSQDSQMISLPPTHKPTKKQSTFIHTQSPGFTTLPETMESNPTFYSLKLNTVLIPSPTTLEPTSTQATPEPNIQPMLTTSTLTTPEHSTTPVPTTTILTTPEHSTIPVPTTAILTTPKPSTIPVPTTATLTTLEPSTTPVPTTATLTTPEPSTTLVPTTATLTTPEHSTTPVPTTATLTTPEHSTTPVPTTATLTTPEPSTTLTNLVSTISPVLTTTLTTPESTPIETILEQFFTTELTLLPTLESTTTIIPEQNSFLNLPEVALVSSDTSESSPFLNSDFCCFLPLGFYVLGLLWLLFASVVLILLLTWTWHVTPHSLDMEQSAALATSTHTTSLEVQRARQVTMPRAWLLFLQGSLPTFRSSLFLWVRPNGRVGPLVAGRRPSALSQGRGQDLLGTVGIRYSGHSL
Procedure: (§1) The force acting on the i tether bond was calculated from force balance equations and koff plotted as a function of these forces. […] Because these platelets cannot activate, the kinetics should be reflective of GPIb α in the resting state.
(§2) This antibody was made by immunizing Fischer 344 rats (3-4 months old) with recombinant WT protein. […] Spleens from animals with the highest antibody titers were harvested and splenocytes fused with Sp2/0 mouse myeloma cells (Kohler, et al., 1975).

[4] = biological target: T2, murine platelet glycoprotein Ib alpha …; assay: transient tethers of VWF-A1-coated beads on surface-immobilized murine platelets; shear stress 2.0 dyn cm-2; R2 0.95
Procedure: as §1, §2

[5] = biological target: T2, murine platelet glycoprotein Ib alpha …; assay: transient tethers of VWF-A1-coated beads on surface-immobilized murine platelets; shear stress 3.0 dyn cm-2; R2 0.98
Procedure: as §1, §2

[6] = biological target: T1, human platelet glycoprotein Ib alpha …; assay: human platelets (5x10^7/ml) perfused over coverslips coated with VWF-A1 (100 µg/ml), parallel plate flow chamber, 800 s-1
Procedure: The protein was subsequently used in a series of in vitro flow chamber assays to assess function. […] After 5 minutes of continuous flow, adherent platelets were quantified.

[7] = biological target: T2, murine platelet glycoprotein Ib alpha …; assay: transient tethers of VWF-A1-coated beads on surface-immobilized murine platelets; shear stress 1.0 dyn cm-2; R2 0.95
Procedure: as §1, §2

[8] = biological target: T2, murine platelet glycoprotein Ib alpha …; assay: transient tethers of VWF-A1-coated beads on surface-immobilized murine platelets; shear stress 2.0 dyn cm-2; R2 0.98
Procedure: as §1, §2

B1: recombinant human VWF-A1 containing 1309I>V and the type 2M mutation 1324G>S (ligand)
chain: QEPGGLVVPPTDAPVSPTTLYVEDISEPPLHDFYCSRLLDLVFLLDGSSRLSEAEFEVLKAFVVDMMERLRVSQKWVRVAVVEYHDSSHAYIGLKDRKRPSELRRIASQVKYAGSQVASTSEVLKYTLFQIFSKIDRPEASRIALLLMASQEPQRMSRNFVRYVQGLKKKKVIVIPVGIGPHANLKQIRLIEKQAPENKAFVLSSVDELEQQRDEIVSYLCDLAPEAPPPTLPPH
Q: Does B1 bind [1]?
A: no binding

B2: recombinant murine rVWF-A1 1326R>H (residues 1238 to 1471), Example 3 (ligand)
chain: QEPGGLVAPPTDAPVSSTTPYVEDTPEPPLHNFYCSKLLDLVFLLDGSSMLSEAEFEVLKAFVVGMMERLHISQKRIRVAVVEYHDGSHAYLELKARKRPSELRRITSQIKYTGSQVASTSEVLKYTLFQIFGKIDRPEASHITLLLTASQEPPRMARNLVRYVQGLKKKKVIVIPVGIGPHASLKQIRLIEKQAPENKAFLLSGVDELEQRRDEIVSYLCDLAPEAPAPTQPP
Q: Does B2 bind [2]?
A: binds

B3: recombinant wild-type murine VWF-A1 protein, His-tagged (amino acids 1233 to 1471, pQE9), Examples 1-2 (ligand)
chain: TCEACQEPGGLVAPPTDAPVSSTTPYVEDTPEPPLHNFYCSKLLDLVFLLDGSSMLSEAEFEVLKAFVVGMMERLHISQKRIRVAVVEYHDGSRAYLELKARKRPSELRRITSQIKYTGSQVASTSEVLKYTLFQIFGKIDRPEASHITLLLTASQEPPRMARNLVRYVQGLKKKKVIVIPVGIGPHASLKQIRLIEKQAPENKAFLLSGVDELEQRRDEIVSYLCDLAPEAPAPTQPP
notes: Disulfide C1272-C1458; also called mouse VWF-A1; M VWF-A1; not shown: 10 vector-derived N-terminal amino acids including 6xHis (pQE9)
Q: B3 was tested. Which koff [3] did it give?
A: 5.1 s⁻¹

Q: What about the koff [4] of the same binder?
A: 8.4 s⁻¹

Q: And the koff [5]?
A: 9.9 s⁻¹

Q: Does B3 bind [6]?
A: binds

B4: recombinant murine VWF-A1 containing the type 2B mutation I1309V (1309I>V) (ligand)
chain: B3 chain with I77V
notes: not shown: 10 vector-derived N-terminal amino acids including 6xHis (pQE9)
Q: Which koff [7] does the source give for B4 here?
A: 0.9 s⁻¹

Q: What about the koff [8] of the same binder?
A: 1.6 s⁻¹

Q: And the koff [3]?
A: 0.7 s⁻¹
